{"source": "patent US20120082669A1", "about": "“HUMAN EPO MIMETIC HINGE CORE MIMETIBODIES, COMPOSITIONS, METHODS AND USES FOR PREVENTING OR TREATING GLUCOSE INTOLERANCE RELATED CONDITIONS OR RENAL DISEASE ASSOCIATED ANEMIA” (priority 2006, published 2012)", "origin": "cited, not measured here", "key": {"[1]": {"conditions": "cited from earlier work"}, "[2]": {"test_system": "patients with end-stage renal disease", "conditions": "patients with end-stage renal disease treated with EPO; cited from earlier work"}, "EPO receptor [3]": {"molecular_target": "T1, EPO receptor (Homo sapiens, UniProt P19235)", "T1 sequence (P19235 25-508)": "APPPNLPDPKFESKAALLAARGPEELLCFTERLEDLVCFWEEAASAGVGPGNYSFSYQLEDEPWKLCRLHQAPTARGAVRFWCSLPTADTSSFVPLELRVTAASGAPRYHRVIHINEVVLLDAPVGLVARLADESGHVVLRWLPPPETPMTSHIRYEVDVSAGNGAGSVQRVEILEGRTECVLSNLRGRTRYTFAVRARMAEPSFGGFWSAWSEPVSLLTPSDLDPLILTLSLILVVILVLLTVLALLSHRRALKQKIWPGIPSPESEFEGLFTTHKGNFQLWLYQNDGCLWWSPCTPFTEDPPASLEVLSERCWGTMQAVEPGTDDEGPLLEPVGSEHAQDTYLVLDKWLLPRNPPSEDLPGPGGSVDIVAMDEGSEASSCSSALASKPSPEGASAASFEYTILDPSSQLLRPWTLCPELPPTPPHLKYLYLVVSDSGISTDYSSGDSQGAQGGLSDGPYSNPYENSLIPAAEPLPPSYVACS", "conditions": "cited from earlier work"}, "EPO receptor [4]": {"molecular_target": "T1, EPO receptor", "conditions": "relative to HuEPO; cited from earlier work"}, "[5]": {"conditions": "serum; cited from earlier work"}}}
{"substance": "Erythropoietin: glycoprotein hormone of 165 amino acids and four carbohydrate chains, primary regulator of erythropoiesis", "values": [{"measurement": "time to peak serum levels", "setting": "[1]; after subcutaneous administration", "result": "5 to 24", "unit": "h"}, {"measurement": "circulating half-life", "setting": "[1]; intravenously administered, patients with CRF", "result": "3 to 4", "unit": "h"}, {"measurement": "time detectable levels of plasma erythropoietin are maintained", "setting": "[1]; within the therapeutic dose range", "result": "at least 24 hours"}, {"measurement": "blood triglyceride, total cholesterol and LDL levels", "setting": "[2]", "result": "concomitant improvement"}, {"measurement": "insulin resistance", "setting": "[2]", "result": "improve insulin resistance"}]}
{"substance": "GGTYSCHFGPLTWVCKPQGG [EMP-1]", "values": [{"measurement": "competition with 125I-labeled EPO for binding to the EPO receptor", "setting": "EPO receptor [3]", "result": "competes"}, {"measurement": "activity, fold less than HuEPO", "setting": "EPO receptor [4]", "result": "10,000 to 100,000 fold"}, {"measurement": "ex-vivo half-life", "setting": "[5]", "result": 8, "unit": "h"}]}
